Data reported in publication PMC8586017, “CENP-V is required for proper chromosome segregation through interaction with spindle microtubules in mouse oocytes” (Nature Communications, 2021).

Target: taxol-stabilised ATTO 647N-labelled microtubules (UniProt P02550 1-451, ATTO 647N label (which chain and residues not stated) | ATTO 647N label (which chain and residues not stated))
Assay: TIRF microscopy, saturation binding curve; CENP-V-eGFP titrated onto surface-bound taxol-stabilised ATTO 647N-labelled microtubules; BRB80 (80 mM PIPES pH 6.8, 1 mM MgCl2, 1 mM EGTA) with 10 µM taxol, casein, DTT; 25 °C, 15 m equilibration; GFP intensity per micrometer of at least 100 microtubules per condition; Hill (cooperative) fit
Conditions: both partners purified

B1: His6-CENP-V-eGFP (natural protein, UniProt Q9CXS4 1-252, looked up)
chain: MRRTRSAVATGPREQRRSGATGGLSGGESRAQRSRSRTRAGAGGGGGAVGPQPSAKPRPKPPPRAQEAAAEEPPPAVTPAASVSALDLGEQRERWETFQKRQRLSFEGAAKLLLDTFEYQGLVKHTGGCHCGAVRFEVWASADLHIFDCNCSICKKKQNRHFIVPASRFKLLKGAESITTYTFNTHKAQHTFCKRCGVQSFYTPRSNPGGFGIAPHCLDEGTVRSVVTEEFNGSDWERAMKEHKTIKNMSKE
notes: CENP-V (centromere protein V); also called CENP-V-GFP; recombinant CENP-V-eGFP
**Q.** With B1 as the binder, how does the Kd read?
**A.** 53.2 ± 4.5 nM
